PMC13351892, “Tool antibody fragments reveal multiple conformations of the rhodopsin-Gi signaling complex” (Biophysical Journal, 2025)

Target: T1, human Gαi1 (human, UniProt P63096)
T1 construct: also called Gαi subunit; source: prepared as described (11)
Assay: cryo-EM structure; Rho-Gαiβγ-scFv16-Fab79, mixed 1:1.4:1.4 in 0.02% LMNG, purified by SEC; two conformations at 5.2 and 5.9 Å
Conditions: both partners purified

T1 sequence (P63096 whole entry): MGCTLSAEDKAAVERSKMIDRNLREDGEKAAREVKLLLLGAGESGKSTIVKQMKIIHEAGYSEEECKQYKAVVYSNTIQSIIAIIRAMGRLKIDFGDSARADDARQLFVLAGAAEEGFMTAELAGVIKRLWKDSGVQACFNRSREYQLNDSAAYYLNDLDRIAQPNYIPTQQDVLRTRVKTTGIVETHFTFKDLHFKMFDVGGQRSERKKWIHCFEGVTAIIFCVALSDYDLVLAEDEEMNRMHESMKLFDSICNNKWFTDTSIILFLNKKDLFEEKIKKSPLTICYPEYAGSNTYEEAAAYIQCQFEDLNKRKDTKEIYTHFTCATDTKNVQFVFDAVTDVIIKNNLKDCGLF

B1: Fab79 (Fab, V domains shown)
VH: EVQLVESGGGLVKPGGSLKLSCAASGFTFSSYAMSWVRQTPEKRLEWVATISSRGLYTYFPDSMKGRFTISRDNAKNTLSLQMSSLRSEDTAMYYCLRGGGYDADYWGQGTTLTVSS
VL: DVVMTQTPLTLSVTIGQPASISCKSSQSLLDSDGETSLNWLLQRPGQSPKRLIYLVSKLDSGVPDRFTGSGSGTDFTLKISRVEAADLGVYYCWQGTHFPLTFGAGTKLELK
notes: Fab79 heavy chain; also in the deposited models PDB 8P13 and 8P15; Fab79 light chain; source: prepared as described (11); from mice immunized with the purified Rho-Gαiβγ complex
- binding result: binds
